Results published in the DeepSol protein solubility set.

Assay: soluble on expression in E. coli; label from the status in PepcDB or PDB records

Row | Sequence | soluble on expression in E. coli
1 | MKIVIIGSGLAGLSAGYRLCKSDEVIIFEKDPDIGGMSASYSIENEGKKYFIEKYYHHIFRSDSELLALIKELGLEKQMLWLKGKNAYFVDGKNYPMNTPVEILHFSPLSILDLAKLGMLVLRIKLIKDTAPYDRIKAKEWILDTAGKSVYENFFAPLMKSKFGDNAENVSAAWVIGRVKIRSDRGAEGEKLGYMRGGFNSLIEALAGEITANGGEIRTDREVTEIVIKANAVQGVKVNGDFIPCDAVISTAEPAVLDAITGGKLGDLHETLKSIRYQGTACALIGLDRSLMEDGNYWLNIKA | not soluble
2 | MAEKLNFEELNSMQRYSQFAVFRAIPGALGSDRAEIVAQAQSFFDGLETAGKVEVRGIYDLAGCRAEADFMIWWIAEEFEEIQAAFARFRRETVLGQVSEVAWLGNSLHRPAEFNRSHLPSFIMGEIPGDWITVYPFVRSYDWYIMDPQKRRKILAEHGQAARDFPDVRANTVPAFALGDYEWMLAFEAPRLDRIVDLMHKMRYTEARLHVREETPFFTGRRVSEVSELVNVLP | not soluble
3 | KCETKEKGAITAKELYTMMTDKNISLIIMDARRMQDYQDSCILHSLSVPEEAISPGVTASWIEAHLPDDSKDTWKKRGNVEYVVLLDWFSSAKDLQIGTTLRSLKDALFKWESKTVLRNEPLVLEGGYENWLLCYPQYTTNAKV | soluble
4 | MGSDKIHHHHHHMKIALDPYMIRHLPLDRLPHAVAELGYDQIELSPRSDFLDWWVMPRATRARMTAFRHALRASGVGLASLQPMYRWASPFEDERQWAVRCWKKAIEVATEMECALMVSEFGRGASPERSVGERPGANPKELCEAAWFRSMDELLPILERERIVLSVEPHPEDWIEQLQPAIDIVTNLGSPSLKLSYIAPHTFYYGDDMAAMIAQAAPILAHVRVADTFDHRKSSQLRYIVNPPGSNQIRVHQHLDIGQGEIDWDTFFRALGDAGFDGVMSSCVFAWEDRAEASSRYMRDTIQRYVDRHFDRAAAR | not soluble
5 | MAHHHHHHMMNTSLLGQDVDEIQSAVDRWYHQSSSNLQASHAAFTAQLRQLQERLGLDPGAPTLSAHVDAMITPPRHMYLSDDNNSGSPPMASPPISRGQLNYDHLLDEVINKGASMPPFNPEEEAERRRRPNAESVRAPSTPPEDCNGPCQVLVEFKRKRVLQYESPYYVAPGEHVVVGGDRGEDIGLVTHSWRDAEAHQLGENRDKGVGKVLRVASVLEVTQLQGVQTELETRAVEVAQEKVQESGLPMRIVDAEYQFDRRKLTFYYQSMHRLDFRTLVRDLYKTFRARIWMEPDTSS | soluble
6 | QILVVRGQVIFPFVPFSLDVGRPRSRKIIKALKTLKTKRLVLVTQKFTGEQNPEFNDIYHVGTLCEIDEIVDVPGVDSKTVDYRIKGRGLQRVLIEKFSDADINEVSYQLLNSTVKDEANVDRFLQRIFPEKEEIEQLMEGAEKFLELENISKTVNVPKGLKQLDIITFKLANLVPNTESIKQAILEENEIANRLEKIIQA | soluble
7 | MSLKITHVEVHRIDVPAASPPFRWRDGLSGSAPVGDGAVLHIGTDEGAEGVSVFARPGAYSTLRDLVDRVFRAELVGADPFQREWLWHRVWELDRIHELPLPTLGLIDIALWDLAGRYHGEPVWRLLGGFREAIPAYASTSTFSSVAEFLDVADQCLALGYRGIKLHAWGDARRDAELCLALRDHVGPDVPLMYDGSAGFDLPDAIRLGRALSEADYLWYEEPIREFSISAYQRLAEAVDVPLLVAETSDGAHMNAADFIRAGAATFGVRAGTTLRGGITGAMRTAHLADAFRLRAEVHGSDIPNHHLCMAISNTTYYESLVTSVNVVRERHVDDQGLVHAPAGPGIALPLDFGYGNELLPFVEQPREGHHHHHH | soluble
8 | FTGFFIGPMAEVTIPLVGLGVDGALLFAQRGVKVGDESIRQNGLDIPINLKYTIGLGSALGIYVAAGPDFYFNFSGDKNYGELGRLNKKNAQVGINVGAGVKLLRHLQVGANYNIPLNKTAEWKEADFSYKTKMWQISAAYIF | not soluble
9 | MQLRYAFRVYPDAGQRLALARAFGCARVVFNDVVRAREDARKAGRPFQTAAGLSRKLITEAKRTAERSWLGEVSAVVLQQSLRDAETAYRNFFASLKGTRKGPRVGPPRYKSRKDARQSIRFTANARWSITDSGRLNLPKIGAVKVKWSRTLPTIPTSVTVIKDAAGRYFASFVVDTDPAADRVRMPDADRTVGIDLGLTHFAVLSDGTKIGSPRFLRRAEKKLKKAQQELSRKQMGSKNRDRARLKVARAHAKVADARREFHHQLSTRLISENQGIAVEDLSVAGLARTRLAKSVHDAGWSSFVGMLKYKAERYGRTLVVIGRFEPTSQTCSTCGVKDGPKPLQVREWTCTACGTVHDRDHNAAINVKQAAGLAASACGAPVRPGAIPAQREETGSHGLPTEPRAALEHHHHHH | not soluble
